The target in this assay is Adeno-associated virus type 2 (AAV2) capsid viral protein VP3 (adeno-associated virus type 2). As to the kind of experiment: cryo-EM structure.

“Adeno-associated virus type 2 (AAV2) capsid viral protein VP3 (natural protein)” showed a stoichiometry N of 60.
